# Reference: US20260275344
# Test system: PiggyBac transposase
# Assay: cell_activity
substance,measurement,setting,value
ITR-EF1a-GFP-ITR cssDNA,activity,"K562 day 21, donor alone ~2.37%",39.3 % GFP+ cells
same,activity,"primary human T cells day 14, donor alone ~0.16%",7.54 % GFP+ cells
